Measurements taken from patent US20210130444A1 (University of California, published 2021).

What was measured:
[1] = target: Myc-tagged human M23 AQP4 on U87MG cells (human) (UniProt P55087); assay: fluorescence ratio imaging on U87MG cells expressing Myc-tagged AQP4, anti-mouse IgG Alexa 488 detection
[2] = target: Myc-tagged human M1 AQP4 on U87MG cells (human) (UniProt P55087); assay: as above
[3] = target: Myc-tagged human M23 AQP4 on U87MG cells (human) (UniProt P55087); assay: fluorescence ratio imaging on U87MG cells (FIG. 6C)
[4] = target: Myc-tagged human M1 AQP4 on U87MG cells (human) (UniProt P55087); assay: as above
[5] = target: M23:CCA mixtures (human M23 AQP4 co-expressed with M1-C13A/C17A) on U87MG cells (human) (UniProt P55087); assay: two-colour fluorescence ratio imaging on transiently transfected U87MG cells, rAb-53 titration
[6] = target: T1, purified recombinant human M1 AQP4 reconstituted in proteoliposomes (human, UniProt P55087 1-323); assay: surface plasmon resonance (Biacore T-100), AQP4 proteoliposomes on L1 chip, antibody injected
T1 construct: 3% (wt/wt) AQP4 in phosphatidylcholine:phosphatidylserine liposomes on a Biacore L1 chip; also called AQP4-reconstituted proteoliposomes; AQP4-proteoliposomes
Protocol: Surface plasmon resonance. […] The mixture was dialyzed (10,000 dalton cut-off) against PBS at 4° C. for 48 h. […] Proteoliposomes were immobilized on a L1 sensor chip (Biacore) with four injections at 10 min/injection at 2 μl/min to achieve 6000 response units of proteoliposomes immobilization. The surface was then washed with two 20 s injections of 50 mM NaOH at 100 μl/min, and checked for surface quality with a 300 s injection of 0.01 mg/ml BSA at 20 μl/min. Flow channel 1 (Fc 1) was immobilized with 0% AQP4 as reference, and Fc 2 contained the AQP4 proteoliposomes. Binding studies were conducted with PBS at a flow rate of 15 μl/min. rAbs in PBS were injected for 80 s followed by a post-injection period of 240 s. Regeneration was performed by injection of 50 mM NaOH at 100 μl/min for 20 s. Binding studies were done in duplicate. Data were analyzed using Biacore T100 Evaluation software.
Binding of each monoclonal recombinant antibody to AQP4 in reconstituted proteoliposomes was measured by surface plasmon resonance.

[7] = target: T2, human AQP4 M23 isoform on U87MG cells (human, UniProt P55087 23-323); assay: two-colour fluorescence ratio imaging on transiently transfected U87MG cells, rAb-53 titration
T2 construct: Tetramers that assemble into orthogonal arrays of particles (OAPs); The chain begins at Met-23 of the long isoform; also called M23 AQP4; M23-AQP4

[8] = target: T2, human AQP4 M23 isoform on U87MG cells; assay: fluorescence ratio imaging on U87MG cells, single-site binding model
[9] = target: T2, human AQP4 M23 isoform on U87MG cells; assay: two-colour fluorescence ratio imaging on transiently transfected U87MG cells, rAb-53 titration; remark: listed apart in the source
[10] = target: T2, human AQP4 M23 isoform on U87MG cells; assay: as above; remark: listed apart in the source
[11] = target: T3, human AQP4 M1 isoform on U87MG cells (human, UniProt P55087 1-323); assay: two-colour fluorescence ratio imaging on U87MG cells, rAb titration, single-site binding fit
T3 construct: Water channel; forms individual tetramers, no OAPs; also called M1 AQP4; M1-AQP4
Description: (§1) FIG. 4B summarizes concentration-dependence binding curves for three recombinant NMO-IgGs, together with curve fits for a single-site binding model.

[12] = target: T2, human AQP4 M23 isoform on U87MG cells; assay: as above
Description: as §1

T1 sequence (P55087 whole entry, form in doubt): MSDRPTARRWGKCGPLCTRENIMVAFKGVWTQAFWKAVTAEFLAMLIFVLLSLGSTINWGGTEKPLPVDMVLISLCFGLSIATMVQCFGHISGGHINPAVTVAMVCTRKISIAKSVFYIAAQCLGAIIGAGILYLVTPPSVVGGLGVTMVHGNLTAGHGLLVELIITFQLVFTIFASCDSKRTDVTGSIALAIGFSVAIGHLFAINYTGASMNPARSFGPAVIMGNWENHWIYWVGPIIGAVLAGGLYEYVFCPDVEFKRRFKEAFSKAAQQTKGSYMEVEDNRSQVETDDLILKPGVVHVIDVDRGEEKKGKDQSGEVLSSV
T2 sequence (P55087 23-323 limits assumed): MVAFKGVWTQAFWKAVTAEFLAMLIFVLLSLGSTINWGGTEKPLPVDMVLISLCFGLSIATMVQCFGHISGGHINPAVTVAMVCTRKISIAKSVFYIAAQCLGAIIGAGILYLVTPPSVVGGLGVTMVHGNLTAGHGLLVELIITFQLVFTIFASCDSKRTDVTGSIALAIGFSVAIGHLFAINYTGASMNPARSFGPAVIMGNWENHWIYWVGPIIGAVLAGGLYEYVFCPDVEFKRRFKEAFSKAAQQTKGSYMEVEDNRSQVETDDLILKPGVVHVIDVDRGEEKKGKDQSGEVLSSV
Chain of Myc-tagged human M23 AQP4 on U87MG cells (human) (P55087 whole entry): as the sequence (P55087 whole entry, form in doubt) above
Chain of Myc-tagged human M1 AQP4 on U87MG cells (human) (P55087 whole entry): as the sequence (P55087 whole entry, form in doubt) above
T3 sequence (P55087 whole entry, canonical isoform): as the sequence (P55087 whole entry, form in doubt) above

Row | Molecule | EC50 (read off the curve) [1] [µg/mL] | EC50 (read off the curve) [2] [µg/mL] | Kd [3] [nM] | Kd [4] [nM] | EC50 (read off the curve) [5] [µg/mL] | Kd [6] [nM] | koff [6] [s⁻¹] | kon [6] [M⁻¹ s⁻¹] | EC50 (read off the curve) [7] [µg/mL] | Kd [8] [nM] | EC50 (read off the curve) [9] [µg/mL] | EC50 (read off the curve) [10] [µg/mL] | Kd [11] [nM] | EC50 (read off the curve) [12] [µg/mL] | Kd [12] [nM]
1 | monoclonal mouse anti-Myc IgG (Covance) (antibody) | 1 | 2 | 10 | 10 | – | – | – | – | – | – | – | – | – | – | –
2 | rAb-53 (recombinant monoclonal NMO-IgG, non-mutated) (antibody, V domains shown, Human recombinant IgG made in HEK293 cells; also called NMO-IgG (rAb-53)) VH: QVQLQESGAGLVKPSETLSLTCTVSGGSISGHYWNWIRQPPGKGLEWIGYIHYSGSTNYNPSLKSRVTISVDTSKNQFSLKLSSVTAADTAVYYCARAEGRGWSAFYYYYMEVWGKGSTVSVSS VL: EIVLTQSPGTLSLSPGERATLSCRASQTVRTNYLAWFQQKPGQAPRLLIFGASSRATGIPDRFSGSGSGTDFTLTISRLEPEDFAVYYCQQYGSSPWTFGQGTKVEIKR | – | – | – | – | 6 | 27 | 0.00038 | 14000 | ~7 | 44 | ~7 | ~7 | 2800 | ~7 | –
3 | rAb-58 (recombinant monoclonal NMO-IgG) (antibody, V domains shown, Human recombinant IgG made in HEK293 cells) VH: VQLVESGGGLVQPGGSLRLSCAASGFTFRGYAMNWVRQAPGKGLEWVASISGSGSITQYADSAKGRFTITRDNSKSTLYAHVSSLRADDTAVYYCAKGDYVFDYWGQGTLVTVSS VL: DIQMTQSPSALSASVGDTVTITCRASQSIRSWLAWYQQKPGKAPKLLIYKASDLQSGVPSRFSGSGSGTDFTLTISGLQPDDFATYYCQHYNSYPYTFGQGTKVEIRR | – | – | – | – | – | – | – | – | – | – | – | – | 147 | ~10 | 68
